{"source": "paper PMC4856396", "about": "“The Staphylococcus aureus Global Regulator MgrA Modulates Clumping and Virulence by Controlling Surface Protein Expression”", "binders": {"B1": {"name": "non-specific competitor NSP (sraP probe 6) (dsDNA)", "DNA 1": "CTGGAAAAAATTGGGTAAAATCCGGAATTAAAGAAATAGAAATGTTCAAA", "DNA 2": "TTTGAACATTTCTATTTCTTTAATTCCGGATTTTACCCAATTTTTTCCAG"}, "B2": {"name": "sraP P2 probe (sraP probe5) (dsDNA)", "DNA 1": "TTTGTATCAAAAAAGAGTTGTATTAAATTGAATAGTGGCATATATTATAA", "DNA 2": "TTATAATATATGCCACTATTCAATTTAATACAACTCTTTTTTGATACAAA"}, "B3": {"name": "sraP specific competitor SP (dsDNA)", "DNA 1": "B2 DNA 1", "DNA 2": "B2 DNA 2"}, "B4": {"name": "Pebh probe (ebh probe2) (dsDNA)", "DNA 1": "GAGCATAAATAAATTGTTCAACACATAGTTGTAATGTGTTTCAATACTTT", "DNA 2": "AAAGTATTGAAACACATTACAACTATGTGTTGAACAATTTATTTATGCTC"}, "B5": {"name": "ebh specific competitor SP (dsDNA)", "DNA 1": "B4 DNA 1", "DNA 2": "B4 DNA 2"}, "B6": {"name": "sraP mutated competitor MP (sraP probe5 mut) (dsDNA)", "DNA 1": "TTTGTAGATGTCAAGCACCTCATTAAATTGAATAGTGGCATATATTATAA", "DNA 2": "TTATAATATATGCCACTATTCAATTTAATGAGGTGCTTGACATCTACAAA"}}, "key": {"MgrA [1]": {"target": "T1, MgrA (Staphylococcus aureus LAC, UniProt P0C1S0 1-147)", "T1 sequence": "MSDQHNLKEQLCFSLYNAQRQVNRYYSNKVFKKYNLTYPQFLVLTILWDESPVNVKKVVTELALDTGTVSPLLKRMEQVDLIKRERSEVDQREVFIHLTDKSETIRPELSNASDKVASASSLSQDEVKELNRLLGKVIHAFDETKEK", "test": "competition; 10-fold excess over labeled Pebh", "details": "protein: recombinant; tags: His6-MBP removed by Tev cleavage (untagged; possible linker residues); chain copies: 2; blunt"}, "MgrA [2]": {"target": "T1, MgrA", "test": "EMSA; 0-2 uM MgrA, 50 nM probe; dose-dependent", "details": "protein: recombinant; tags: His6-MBP removed by Tev cleavage (untagged; possible linker residues); chain copies: 2; label: IRDye 700 on HC346; blunt"}, "MgrA [3]": {"target": "T1, MgrA", "test": "competition; 10-fold excess over labeled sraP P2 probe", "details": "protein: recombinant; tags: His6-MBP removed by Tev cleavage (untagged; possible linker residues); chain copies: 2; blunt"}, "MgrA [4]": {"target": "T1, MgrA", "test": "EMSA; 0-2 uM MgrA, 50 nM probe", "details": "protein: recombinant; tags: His6-MBP removed by Tev cleavage (untagged; possible linker residues); chain copies: 2; label: IRDye 700 at one end (HC487); blunt"}}, "data": [{"binder": "B1", "values": [{"measurement": "binding result", "setting": "MgrA [1]", "result": "no binding"}]}, {"binder": "B2", "values": [{"measurement": "binding result", "setting": "MgrA [2]", "result": "binds"}]}, {"binder": "B3", "values": [{"measurement": "binding result", "setting": "MgrA [3]", "result": "binds"}]}, {"binder": "B4", "values": [{"measurement": "binding result", "setting": "MgrA [4]", "result": "binds"}]}, {"binder": "B5", "values": [{"measurement": "binding result", "setting": "MgrA [1]", "result": "binds"}]}, {"binder": "B6", "values": [{"measurement": "binding result", "setting": "MgrA [3]", "result": "no binding"}]}]}
